Assays:
[1] = target: B-Cell maturation antigen (BCMA) on BCMA-expressing multiple myeloma cell lines (human) (UniProt Q02223); assay: cell-based or functional assay
[2] = target: T1, B-Cell maturation antigen (BCMA) on BCMA-expressing multiple myeloma cell lines (human, UniProt Q02223 1-184); assay: cell-based or functional assay
T1 sequence (looked up): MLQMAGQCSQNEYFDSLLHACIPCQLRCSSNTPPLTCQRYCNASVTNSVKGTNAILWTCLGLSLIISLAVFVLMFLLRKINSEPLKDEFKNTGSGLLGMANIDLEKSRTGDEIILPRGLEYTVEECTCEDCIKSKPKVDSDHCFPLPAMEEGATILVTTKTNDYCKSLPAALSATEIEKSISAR

[3] = target: T1, B-Cell maturation antigen (BCMA) on …; assay: cell-based or functional assay; remark: listed apart in the source
[4] = target: T1, B-Cell maturation antigen (BCMA) on …; assay: flow cytometry-binding assay on MM.1S Luc and NCI-H929 cells

Molecule | cytotoxic potential EC50, KMS-11 cells, 96 h [1] [nM] | cytotoxic potential EC50, MM.1S Luc cells, 96 h [1] [nM] | cytotoxicity EC50 [M], MM.1S Luc cells, 96 h [2] [M] | cytotoxicity EC50 [M], MM.1S cells, 96 h [2] [M] | cytotoxicity EC50 [M], NCI-H929 cells, 96 h [2] [M] | cytotoxicity EC50 [M], OPM-2 cells, 96 h [2] [M] | cytotoxicity EC50 [M], U266B1 cells, 96 h [2] [M] | cytotoxic potential EC50, KMS-11 cells, 96 h [3] [nM] | cytotoxic potential EC50, MM.1S Luc cells, 96 h [3] [nM] | binding result [4]
monomethyl auristatin F derivative J22.9-ISY-MMAF (antibody) | 0.626 | 0.481 |  |  |  |  |  |  |  | 
J22.9-ISY-D265C-30.1699 (antibody, V domains shown, alpha-amanitin-linker HDP 30.1699 (cathepsin B cleavable linker, maleimide) on the engineered Cys 265) VH: EVQLVESGGGLVQPGGSLRLSCAASGFTFSRYWISWVRQAPGKGLVWVGEINPSSSTINYAPSLKDKFTISRDNAKNTLYLQMNSLRAEDTAVYYCASLYYDYGDAYDYWGQGTLVTVSS VL: EIVMTQSPATLSVSPGERATLSCKASQSVESNVAWYQQKPGQAPRALIYSASLRFSGIPARFSGSGSGTEFTLTISSLQSEDFAVYYCQQYNNYPLTFGAGTKLELKR |  |  | 6.5e-11 | 1.7e-10 | 7e-11 | 7.9e-09 | 7.3e-11 |  |  | 
amanitin-conjugate J22.9-ISY-D265C-30.2115 (antibody, V domains shown, amatoxin-linker HDP 30.2115 (cathepsin B cleavable linker, maleimide) on the engineered Cys 265) VH: EVQLVESGGGLVQPGGSLRLSCAASGFTFSRYWISWVRQAPGKGLVWVGEINPSSSTINYAPSLKDKFTISRDNAKNTLYLQMNSLRAEDTAVYYCASLYYDYGDAYDYWGQGTLVTVSS VL: EIVMTQSPATLSVSPGERATLSCKASQSVESNVAWYQQKPGQAPRALIYSASLRFSGIPARFSGSGSGTEFTLTISSLQSEDFAVYYCQQYNNYPLTFGAGTKLELKR |  |  | 2.3e-10 | 2.9e-10 | 9.7e-11 | 1.4e-07 | 1.4e-10 | 1.72 | 0.557 | 
Thiomab antibody J22.9-ISY-D265C (antibody, human IgG1, kappa, V domains shown, Unconjugated antibody; also called thiomab J22.9-ISY-D265C) VH: EVQLVESGGGLVQPGGSLRLSCAASGFTFSRYWISWVRQAPGKGLVWVGEINPSSSTINYAPSLKDKFTISRDNAKNTLYLQMNSLRAEDTAVYYCASLYYDYGDAYDYWGQGTLVTVSS VL: EIVMTQSPATLSVSPGERATLSCKASQSVESNVAWYQQKPGQAPRALIYSASLRFSGIPARFSGSGSGTEFTLTISSLQSEDFAVYYCQQYNNYPLTFGAGTKLELKR |  |  |  |  |  |  |  |  |  | binds
